Results taken from paper PMC9352680, “A comprehensive thermodynamic model for RNA binding by the Saccharomyces cerevisiae Pumilio protein PUF4”.

target: T1, PUF4 RNA-binding domain (Saccharomyces cerevisiae, UniProt P25339 537-888); test: Mg; RNA-MaP; 20 mM Na-HEPES pH 7.4, 30 mM KOAc, 0.75 mM MgCl2, 0.1% Tween-20, 5% glycerol, 0.1 mg/mL BSA, 2 mM DTT; 25 C; 0.0125-409.6 nM protein; settings: tags: N-His6-TEV cleaved; C-SNAP kept, Cy3B-labelled; label: tethered on chip by stalled RNA polymerase
T1 sequence: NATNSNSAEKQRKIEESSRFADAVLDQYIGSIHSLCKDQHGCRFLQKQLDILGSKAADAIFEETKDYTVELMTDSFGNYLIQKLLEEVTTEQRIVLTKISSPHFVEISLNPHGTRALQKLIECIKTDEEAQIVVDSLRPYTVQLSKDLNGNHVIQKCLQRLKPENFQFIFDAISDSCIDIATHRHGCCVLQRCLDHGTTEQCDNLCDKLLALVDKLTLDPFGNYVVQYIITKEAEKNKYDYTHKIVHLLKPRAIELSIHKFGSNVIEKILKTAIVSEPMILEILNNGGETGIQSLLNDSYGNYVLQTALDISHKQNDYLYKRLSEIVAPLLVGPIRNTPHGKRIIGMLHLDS

Binder | Kd [nM]
UCUCUUAGUAUAAUUAUCUCUU (ssRNA) [Ib_S1_P5E.1_K5.1_C5.1_H5.1_[T1A]_A5.1_[T6A]_F5.1_T5.1] | 1030
UCUCUUAGUAUUCUUAUCUCUU (ssRNA) [Ib_S1_P5E.1_K5.1_C5.1_H5.1_[T1A]_A5.1_[A7C]_F5.1_T5.1] | 1460
UCUCUUCGUAUCAUUAUCUCUU (ssRNA) [Ib_S1_P5E.1_K5.1_C5.1_H5.1_[T1C]_A5.1_[T6C]_F5.1_T5.1] | 1380
UCUCUUCGUAUUGUUAUCUCUU (ssRNA) [Ib_S1_P5E.1_K5.1_C5.1_H5.1_[T1C]_A5.1_[A7G]_F5.1_T5.1] | > 2300
Id_ii_S4_P3E.2_K3.1_C3.2_H3.1_A3.1_F3.1_T3.2_[T9A] (ssRNA) RNA: UUUGACAACUGAUCGUUCUUUCUCUUGUAUAUAAAUUCUUUCUCGAUCAGUUGUCUUU | 3.34
Id_ii_S4_P3E.3_K3.2_C3.2_[C-2T]_H3.2_A3.1_F3.1_T3.2_[A10T] (ssRNA) RNA: UUUGACAACUGAUCGUUCUUUCUUUUAUAUAUAUUUUCUUUCUCGAUCAGUUGUCUUU | 70
Id_ii_S4_P3E.3_K3.2_C3.2_[C-2A]_[T-1A]_H3.2_A3.1_F3.1_T3.2_[A10C] (ssRNA) RNA: UUUGACAACUGAUCGUUCUUUCUAAUAUAUAUAUCUUCUUUCUCGAUCAGUUGUCUUU | 296
Id_ii_S4_P3E.3_K3.2_C3.2_[C-2A]_[T-1C]_H3.2_A3.1_F3.1_T3.2_[T9C]_[A10G] (ssRNA) RNA: UUUGACAACUGAUCGUUCUUUCUACUAUAUAUACGUUCUUUCUCGAUCAGUUGUCUUU | 2050
Id_ii_S4_P3E.3_K3.2_C3.2_[C-2T]_[T-1C]_H3.2_A3.1_F3.1_T3.2_[T9A] (ssRNA) RNA: UUUGACAACUGAUCGUUCUUUCUUCUAUAUAUAAAUUCUUUCUCGAUCAGUUGUCUUU | 472
Id_ii_S4_P3E.3_K3.2_C3.2_[C-2G]_[T-1G]_H3.2_A3.1_F3.1_T3.2_[A10T] (ssRNA) RNA: UUUGACAACUGAUCGUUCUUUCUGGUAUAUAUAUUUUCUUUCUCGAUCAGUUGUCUUU | 234
Id_ii_S4_P3E.3_K3.2_C3.2_[C-2A]_[T-1C]_H3.2_A3.1_F3.1_T3.2_[T9C]_[A10C] (ssRNA) RNA: UUUGACAACUGAUCGUUCUUUCUACUAUAUAUACCUUCUUUCUCGAUCAGUUGUCUUU | 184
Id_ii_S4_P3E.3_K3.2_C3.2_[C-2T]_[T-1A]_H3.2_A3.1_F3.1_T3.2_[T9A]_[A10C] (ssRNA) RNA: UUUGACAACUGAUCGUUCUUUCUUAUAUAUAUAACUUCUUUCUCGAUCAGUUGUCUUU | 326
Id_ii_S4_P3E.3_K3.2_C3.2_[C-2G]_[T-1C]_H3.2_A3.1_F3.1_T3.2_[A10T] (ssRNA) RNA: UUUGACAACUGAUCGUUCUUUCUGCUAUAUAUAUUUUCUUUCUCGAUCAGUUGUCUUU | 149
Id_ii_S4_P3E.3_K3.2_C3.2_[C-2A]_H3.2_A3.1_F3.1_T3.2_[T9C]_[A10T] (ssRNA) RNA: UUUGACAACUGAUCGUUCUUUCUAUUAUAUAUACUUUCUUUCUCGAUCAGUUGUCUUU | 214
Id_ii_S4_P3E.3_K3.2_C3.2_[C-2A]_[T-1A]_H3.2_A3.1_F3.1_T3.2_[T9C]_[A10G] (ssRNA) RNA: UUUGACAACUGAUCGUUCUUUCUAAUAUAUAUACGUUCUUUCUCGAUCAGUUGUCUUU | 745
If_S4_P3E.2_K3.1_C3.2_H3.1_A3.1_F3.1_T3.2 (ssRNA) RNA: UUUGACAACUGAUCGUUCUUUCUCUUGUAUAUAUAUUCUUUCUCGAUCAGUUGUCUUU | 0.951
Id_ii_S4_P3E.3_K3.2_C3.2_[C-2T]_H3.2_A3.1_F3.1_T3.2_[T9G]_[A10T] (ssRNA) RNA: UUUGACAACUGAUCGUUCUUUCUUUUAUAUAUAGUUUCUUUCUCGAUCAGUUGUCUUU | 575
Id_ii_S4_P3E.3_K3.2_C3.2_[C-2A]_[T-1A]_H3.2_A3.1_F3.1_T3.2_[T9C]_[A10T] (ssRNA) RNA: UUUGACAACUGAUCGUUCUUUCUAAUAUAUAUACUUUCUUUCUCGAUCAGUUGUCUUU | 167
Id_ii_S4_P3E.3_K3.2_C3.2_[C-2A]_H3.2_A3.1_F3.1_T3.2_[A10G] (ssRNA) RNA: UUUGACAACUGAUCGUUCUUUCUAUUAUAUAUAUGUUCUUUCUCGAUCAGUUGUCUUU | 978
Id_ii_S4_P3E.3_K3.2_C3.2_[C-2G]_[T-1C]_H3.2_A3.1_F3.1_T3.2_[T9C]_[A10T] (ssRNA) RNA: UUUGACAACUGAUCGUUCUUUCUGCUAUAUAUACUUUCUUUCUCGAUCAGUUGUCUUU | 557
Id_ii_S4_P3E.3_K3.2_C3.2_[C-2A]_[T-1A]_H3.2_A3.1_F3.1_T3.2_[T9A]_[A10C] (ssRNA) RNA: UUUGACAACUGAUCGUUCUUUCUAAUAUAUAUAACUUCUUUCUCGAUCAGUUGUCUUU | 445
Id_ii_S4_P3E.3_K3.2_C3.2_[C-2T]_[T-1G]_H3.2_A3.1_F3.1_T3.2_[T9A]_[A10T] (ssRNA) RNA: UUUGACAACUGAUCGUUCUUUCUUGUAUAUAUAAUUUCUUUCUCGAUCAGUUGUCUUU | 1.81
Id_ii_S4_P3E.3_K3.2_C3.2_[C-2T]_[T-1A]_H3.2_A3.1_F3.1_T3.2_[T9C] (ssRNA) RNA: UUUGACAACUGAUCGUUCUUUCUUAUAUAUAUACAUUCUUUCUCGAUCAGUUGUCUUU | 94.6
Id_ii_S4_P3E.3_K3.2_C3.2_[C-2A]_[T-1G]_H3.2_A3.1_F3.1_T3.2_[T9A]_[A10G] (ssRNA) RNA: UUUGACAACUGAUCGUUCUUUCUAGUAUAUAUAAGUUCUUUCUCGAUCAGUUGUCUUU | 1140

Binder | Kd [nM]
Id_ii_S4_P3E.2_K3.1_C3.2_H3.1_A3.1_F3.1_T3.2_[A10T] (ssRNA) RNA: UUUGACAACUGAUCGUUCUUUCUCUUGUAUAUAUUUUCUUUCUCGAUCAGUUGUCUUU | 1.14
Id_ii_S4_P3E.3_K3.2_C3.2_[C-2G]_[T-1G]_H3.2_A3.1_F3.1_T3.2_[T9A] (ssRNA) RNA: UUUGACAACUGAUCGUUCUUUCUGGUAUAUAUAAAUUCUUUCUCGAUCAGUUGUCUUU | 676
Id_ii_S4_P3E.3_K3.2_C3.2_[C-2A]_[T-1A]_H3.2_A3.1_F3.1_T3.2_[T9A] (ssRNA) RNA: UUUGACAACUGAUCGUUCUUUCUAAUAUAUAUAAAUUCUUUCUCGAUCAGUUGUCUUU | 723
Id_ii_S4_P3E.3_K3.2_C3.2_[C-2A]_H3.2_A3.1_F3.1_T3.2_[T9A] (ssRNA) RNA: UUUGACAACUGAUCGUUCUUUCUAUUAUAUAUAAAUUCUUUCUCGAUCAGUUGUCUUU | 831
Id_ii_S4_P3E.3_K3.2_C3.2_[C-2G]_H3.2_A3.1_F3.1_T3.2_[A10T] (ssRNA) RNA: UUUGACAACUGAUCGUUCUUUCUGUUAUAUAUAUUUUCUUUCUCGAUCAGUUGUCUUU | 16.8
Id_ii_S4_P3E.3_K3.2_C3.2_[C-2T]_[T-1G]_H3.2_A3.1_F3.1_T3.2_[T9G]_[A10C] (ssRNA) RNA: UUUGACAACUGAUCGUUCUUUCUUGUAUAUAUAGCUUCUUUCUCGAUCAGUUGUCUUU | 2.89
Id_ii_S4_P3E.3_K3.2_C3.2_[C-2T]_[T-1C]_H3.2_A3.1_F3.1_T3.2_[T9C] (ssRNA) RNA: UUUGACAACUGAUCGUUCUUUCUUCUAUAUAUACAUUCUUUCUCGAUCAGUUGUCUUU | 252
Id_ii_S4_P3E.3_K3.2_C3.2_[C-2A]_[T-1C]_H3.2_A3.1_F3.1_T3.2_[T9C] (ssRNA) RNA: UUUGACAACUGAUCGUUCUUUCUACUAUAUAUACAUUCUUUCUCGAUCAGUUGUCUUU | 261
Id_ii_S4_P3E.3_K3.2_C3.2_[C-2T]_[T-1C]_H3.2_A3.1_F3.1_T3.2_[A10C] (ssRNA) RNA: UUUGACAACUGAUCGUUCUUUCUUCUAUAUAUAUCUUCUUUCUCGAUCAGUUGUCUUU | 120
Id_ii_S4_P3E.3_K3.2_C3.2_[C-2T]_[T-1C]_H3.2_A3.1_F3.1_T3.2_[T9C]_[A10G] (ssRNA) RNA: UUUGACAACUGAUCGUUCUUUCUUCUAUAUAUACGUUCUUUCUCGAUCAGUUGUCUUU | 467
Id_ii_S4_P3E.3_K3.2_C3.2_[C-2G]_H3.2_A3.1_F3.1_T3.2 (ssRNA) RNA: UUUGACAACUGAUCGUUCUUUCUGUUAUAUAUAUAUUCUUUCUCGAUCAGUUGUCUUU | 43.8
Id_ii_S4_P3E.3_K3.2_C3.2_[C-2A]_[T-1C]_H3.2_A3.1_F3.1_T3.2_[T9C]_[A10T] (ssRNA) RNA: UUUGACAACUGAUCGUUCUUUCUACUAUAUAUACUUUCUUUCUCGAUCAGUUGUCUUU | 132
Id_ii_S4_P3E.3_K3.2_C3.2_[C-2T]_[T-1A]_H3.2_A3.1_F3.1_T3.2_[A10C] (ssRNA) RNA: UUUGACAACUGAUCGUUCUUUCUUAUAUAUAUAUCUUCUUUCUCGAUCAGUUGUCUUU | 108
Id_ii_S4_P3E.3_K3.2_C3.2_[C-2T]_[T-1C]_H3.2_A3.1_F3.1_T3.2_[A10T] (ssRNA) RNA: UUUGACAACUGAUCGUUCUUUCUUCUAUAUAUAUUUUCUUUCUCGAUCAGUUGUCUUU | 38
Id_ii_S4_P3E.3_K3.2_C3.2_[C-2G]_[T-1G]_H3.2_A3.1_F3.1_T3.2_[T9A]_[A10C] (ssRNA) RNA: UUUGACAACUGAUCGUUCUUUCUGGUAUAUAUAACUUCUUUCUCGAUCAGUUGUCUUU | 2160
Id_ii_S4_P3E.3_K3.2_C3.2_[C-2G]_H3.2_A3.1_F3.1_T3.2_[T9A]_[A10G] (ssRNA) RNA: UUUGACAACUGAUCGUUCUUUCUGUUAUAUAUAAGUUCUUUCUCGAUCAGUUGUCUUU | 304
Id_ii_S4_P3E.3_K3.2_C3.2_[C-2G]_[T-1G]_H3.2_A3.1_F3.1_T3.2_[A10G] (ssRNA) RNA: UUUGACAACUGAUCGUUCUUUCUGGUAUAUAUAUGUUCUUUCUCGAUCAGUUGUCUUU | 562
Id_ii_S4_P3E.3_K3.2_C3.2_[C-2G]_H3.2_A3.1_F3.1_T3.2_[T9C]_[A10T] (ssRNA) RNA: UUUGACAACUGAUCGUUCUUUCUGUUAUAUAUACUUUCUUUCUCGAUCAGUUGUCUUU | 146
Id_ii_S4_P3E.3_K3.2_C3.2_[C-2A]_[T-1A]_H3.2_A3.1_F3.1_T3.2_[T9A]_[A10T] (ssRNA) RNA: UUUGACAACUGAUCGUUCUUUCUAAUAUAUAUAAUUUCUUUCUCGAUCAGUUGUCUUU | 584
Id_ii_S4_P3E.3_K3.2_C3.2_[C-2G]_[T-1C]_H3.2_A3.1_F3.1_T3.2_[T9A]_[A10C] (ssRNA) RNA: UUUGACAACUGAUCGUUCUUUCUGCUAUAUAUAACUUCUUUCUCGAUCAGUUGUCUUU | 1200
Id_ii_S4_P3E.3_K3.2_C3.2_[C-2T]_H3.2_A3.1_F3.1_T3.2 (ssRNA) RNA: UUUGACAACUGAUCGUUCUUUCUUUUAUAUAUAUAUUCUUUCUCGAUCAGUUGUCUUU | 117
Id_ii_S4_P3E.3_K3.2_C3.2_[C-2A]_H3.2_A3.1_F3.1_T3.2_[A10C] (ssRNA) RNA: UUUGACAACUGAUCGUUCUUUCUAUUAUAUAUAUCUUCUUUCUCGAUCAGUUGUCUUU | 134
Id_ii_S4_P3E.3_K3.2_C3.2_[C-2T]_H3.2_A3.1_F3.1_T3.2_[T9C] (ssRNA) RNA: UUUGACAACUGAUCGUUCUUUCUUUUAUAUAUACAUUCUUUCUCGAUCAGUUGUCUUU | 220
Id_ii_S4_P3E.3_K3.2_C3.2_[C-2T]_[T-1C]_H3.2_A3.1_F3.1_T3.2_[T9A]_[A10T] (ssRNA) RNA: UUUGACAACUGAUCGUUCUUUCUUCUAUAUAUAAUUUCUUUCUCGAUCAGUUGUCUUU | 151
